Measured values: patent publication US20180009908
Numbering of substitutions follows the chain as printed.

Key:
[1] = LCMS, IgG1 BsAb co-expression; HCB homodimer species
[2] = LCMS, IgG4 BsAb co-expression; HCB homodimer species
[3] = pertuzumab × matuzumab bispecific

B1: matuzumab HC_20.8.34_B + matuzumab LC (IgG1) (protein)
chain 1: QVQLVQSGAEVKKPGASVKVSCKASGYTFTSHWMHWVRYAPGQGLEWIGEFNPSNGRTNYNEKFKSKATMTVDTSTNTAYMELSSLRSEDTAVYYCASRDYDYDGRYFDYWGRGTLVTVSSASTKGPSVFPLAPCSKSTSGGTAALGCLVKDYFPEPVTVSWNSGALTSGVHTFPAVLQSSGLYSLSSVVTVPSSSLGTQTYICNVNHKPSNTKVDKKVEPDSGDKTHTCPPCPAPELLGGPSVFLFPPKPKDTLMISRTPEVTCVVVDVSHEDPEVKFNWYVDGVEVHNAKTKPREEQYNSTYRVVSVLTVLHQDWLNGKEYKCKVSNKALPAPIEKTISKAKGQPREPQVYTLPPSRGDMTKNQVQLTCLVKGFYPSDIAVEWESNGQPENNYKTTPPVLDSDGSFFLASKLTVDKSRWQQGNVFSCSVMHEALHNHYTQKSLSLSPGK
chain 2: DIQMTQSPSSLSASVGDRVTITCSASSSVTYMYWYQRKPGDAPKLLIYDTSNLASGVPSRFSGSGSGTDYTFTISSLQPEDIATYYCQQWSSHIFTFGQGTKVEIKRTVAAPSVFIFPPSKEQLKSGTASVVCLLNNFYPREAKVQWKVDNALQSGNSQESVTEQDSKDSTYSLSSTLTLSKADYEKHKVYACEVTHQGLSSPVTKSFNRGEC
- % BB Homodimer (incorrect assembly) ([1]; MetMAb × matuzumab bispecific): 0%
- % BB Homodimer (incorrect assembly) [1, 3]: 1.6%

B2: matuzumab HC_7.8.60_B + matuzumab LC (IgG1) (protein)
chain 1: B1 chain 1 with E349R, Q351R, G360E, D361E, Q368S, T370V, A411Y, K413V
chain 2: B1 chain 2
- % BB Homodimer (incorrect assembly) [1]: 1.3%

B3: matuzumab HC_7.8.60_B + matuzumab LC (IgG4 HC backbone) (protein)
chain 1: QVQLVQSGAEVKKPGASVKVSCKASGYTFTSHWMHWVRYAPGQGLEWIGEFNPSNGRTNYNEKFKSKATMTVDTSTNTAYMELSSLRSEDTAVYYCASRDYDYDGRYFDYWGRGTLVTVSSASTKGPSVFPLAPCSRSTSESTAALGCLVKDYFPEPVTVSWNSGALTSGVHTFPAVLQSSGLYSLSSVVTVPSSSLGTKTYTCNVDHKPSNTKVDKRVESDYGPPCPPCPAPEAAGGPSVFLFPPKPKDTLMISRTPEVTCVVVDVSQEDPEVQFNWYVDGVEVHNAKTKPREEQFQSTYRVVSVLTVLHQDWLNGKEYKCKVSNKGLPSSIEKTISKAKGQPRRPRVYTLPPSQEEMTKNQVSLVCLVKGFYPSDIAVEWESNGQPENNYKTTPPVLDSDGSFFLYSVLTVDKSRWQEGNVFSCSVMHEALHNHYTQKSLSLSLG
chain 2: B1 chain 2
- % BB Homodimer (incorrect assembly) [2]: 0%

B4: matuzumab HC_20.8.37_B + matuzumab LC (IgG1) (protein)
chain 1: B1 chain 1 with G360E, Q368R
chain 2: B1 chain 2
- % BB Homodimer (incorrect assembly) ([1]; MetMAb × matuzumab bispecific): 0%
- % BB Homodimer (incorrect assembly) [1, 3]: 0.5%

B5: matuzumab HC_20.8.34_B + matuzumab LC (IgG4 HC backbone) (protein)
chain 1: B3 chain 1 with R346E, R348Q, E357G, E358D, S365Q, V367T, Y408A, V410R
chain 2: B1 chain 2
- % BB Homodimer (incorrect assembly) ([2]; MetMAb × Matuzumab IgG BsAbs (with select CH3 Designs)): 0%
- % BB Homodimer (incorrect assembly) ([2]; Pertuzumab × Matuzumab IgG BsAbs (with select CH3 Designs)): 3.6%

B6: BHA10 HC_7.8.60_B + BHA10 LC (IgG4 HC backbone) (protein)
chain 1: QVQLVQSGAEVKKPGSSVKVSCKASGYTFTTYYLHWVRYAPGQGLEWMGWIYPGNVHAQYNEKFKGRVTITADKSTSTAYMELSSLRSEDTAVYYCARSWEGFPYWGRGTTVTVSSASTKGPSVFPLAPCSRSTSESTAALGCLVKDYFPEPVTVSWNSGALTSGVHTFPAVLQSSGLYSLSSVVTVPSSSLGTKTYTCNVDHKPSNTKVDKRVESDYGPPCPPCPAPEAAGGPSVFLFPPKPKDTLMISRTPEVTCVVVDVSQEDPEVQFNWYVDGVEVHNAKTKPREEQFQSTYRVVSVLTVLHQDWLNGKEYKCKVSNKGLPSSIEKTISKAKGQPRRPRVYTLPPSQEEMTKNQVSLVCLVKGFYPSDIAVEWESNGQPENNYKTTPPVLDSDGSFFLYSVLTVDKSRWQEGNVFSCSVMHEALHNHYTQKSLSLSLG
chain 2: DIQMTQSPSSLSASVGDRVTITCKASQNVGINVAWYQRKPGDAPKSLISSASYRYSGVPSRFSGSGSGTDFTLTISSLQPEDFATYFCQQYDTYPFTFGQGTKVEIKRTVAAPSVFIFPPSKEQLKSGTASVVCLLNNFYPREAKVQWKVDNALQSGNSQESVTEQDSKDSTYSLSSTLTLSKADYEKHKVYACEVTHQGLSSPVTKSFNRGEC
- % BB Homodimer (incorrect assembly) [2]: 4.2%

B7: BHA10 HC_7.8.60_B + BHA10 LC (IgG1) (protein)
chain 1: QVQLVQSGAEVKKPGSSVKVSCKASGYTFTTYYLHWVRYAPGQGLEWMGWIYPGNVHAQYNEKFKGRVTITADKSTSTAYMELSSLRSEDTAVYYCARSWEGFPYWGRGTTVTVSSASTKGPSVFPLAPCSKSTSGGTAALGCLVKDYFPEPVTVSWNSGALTSGVHTFPAVLQSSGLYSLSSVVTVPSSSLGTQTYICNVNHKPSNTKVDKKVEPDSGDKTHTCPPCPAPELLGGPSVFLFPPKPKDTLMISRTPEVTCVVVDVSHEDPEVKFNWYVDGVEVHNAKTKPREEQYNSTYRVVSVLTVLHQDWLNGKEYKCKVSNKALPAPIEKTISKAKGQPRRPRVYTLPPSREEMTKNQVSLVCLVKGFYPSDIAVEWESNGQPENNYKTTPPVLDSDGSFFLYSVLTVDKSRWQQGNVFSCSVMHEALHNHYTQKSLSLSPGK
chain 2: B6 chain 2
- % BB Homodimer (incorrect assembly) [1]: 1.6%

B8: BHA10 HC_20.8.37_B + BHA10 LC (IgG1) (protein)
chain 1: B7 chain 1 with R344E, R346Q, E356D, S363R, V365T, Y406A, V408K
chain 2: B6 chain 2
- % BB Homodimer (incorrect assembly) [1]: 0%

B9: BHA10 HC_20.8.34_B + BHA10 LC (IgG4 HC backbone) (protein)
chain 1: B6 chain 1 with R341E, R343Q, E352G, E353D, S360Q, V362T, Y403A, V405R
chain 2: B6 chain 2
- % BB Homodimer (incorrect assembly) [2]: 0%

B10: BHA10 HC_20.8.34_B + BHA10 LC (IgG1) (protein)
chain 1: B7 chain 1 with R344E, R346Q, E355G, E356D, S363Q, V365T, Y406A, V408K
chain 2: B6 chain 2
- % BB Homodimer (incorrect assembly) [1]: 0%

B11: BHA10 HC_20.8_B + BHA10 LC (IgG1) (protein)
chain 1: B7 chain 1 with R344E, R346Q, E356D, S363Q, V365T, Y406A, V408K
chain 2: B6 chain 2
- % BB Homodimer (incorrect assembly) [1]: 0%
